Substrate in this data set: CNC(=O)Oc1ccc2[nH]cc(CCNC(C)=O)c2c1
Kind of data set: MTase-Glo bioluminescence assay. It is filed as biochemical, Streptomyces griseofuscus. The following applies: […] SAM; optimized conditions ([…] °C, pH […] KPi stated as optimum).

B1: PsmD (Streptomyces griseofuscus) (protein)
chain: MMQGQPHQDAGMPEPYAATADVYDRLVDYAIAEWGECPRPQMADFVEQAWAARGHRVRRVLELCCGTGLMTEQLVRRGYEVTAVDRSETMLALAKQRVGGAADFHQIELPAPLPDGADAVVCTAAAFNYQASARSLGETLRAVATVLPAGATFVFDIETAALLKGHWGNRVWAADEGDLAFIWDFTSEPDTTYCDVHYTQFTRHEAGADAYTGVREVHRLYAFDHDTVRAQARAAGFAQAEVFDNYTERPATDTTRYETWVLTRDER
What is called Km is the concentration of substrate that gives half-maximal velocity. As for B1, the Km turned out to be 11.3 µM.

(Values after article PMC8596708.)
